In patent US20190322748A1 (Hoffmann-La Roche, published 2019):
Values joined by “and” are separate entries in the source; they are usually repeats but may differ in a detail not shown here. Identical values can stand only once.

Legend:
Tim3-ECD-His-Biotin [1] = target: T1, Tim3-ECD-His-Biotin (human, UniProt Q8TDQ0 22-202, biotinylated with BirA Ligase, site not stated); experiment: ELISA on human Tim3 (values in relation to the samples max value)
T1 construct: also called human Tim3 (ELISA); Biochem Human

[2] = target: T2, full-length human Tim3 on cells (CHO-K1 stably transfected with plasmid 15312_hTIM3-fl_pUC_Neo) (human, UniProt Q8TDQ0 22-301); experiment: cell ELISA on CHO-K1 cells with full-length human Tim3
T2 construct: Also used as the target of the MLR read-outs (native TIM-3); also called CHO-Tim3; CHO-TIM3
Description: (§1) Then the reaction was stopped by addition of 25 μl/well 1N HCL-solution.

monomeric human Tim3-ECD [3] = target: T3, monomeric human Tim3-ECD (human, UniProt Q8TDQ0 22-202); experiment: SPR BIAcore B4000, Ab captured on anti-mouse IgG, 25 C
T3 construct: SPR analyte; also called huTim3; hu Tim3-ECD
Excerpt: (§2) A surface plasmon resonance (SPR) based assay has been used to determine the kinetic parameters of the binding between several murine Tim3 binders as well as commercial human Tim3 binding references. Therefore, an anti-mouse IgG was immobilized by amine coupling to the surface of a (BIAcore) CM5 sensor chip. The samples were then captured and monomeric hu/cy Tim3-ECD as well as a Fc-tagged human Tim3-ECD dimer was bound to them. The sensor chip surface was regenerated after each analysis cycle. The equilibrium constant KD was finally gained by fitting the data to a 1:1 Langmuir interaction model.
(§3) The samples were injected for 30 seconds with a concentration of 200 μg/ml and bound to the spots 1 and 5 of each flow cell, allowing the measurement of eight samples in parallel. Then a complete set of different (monomeric cyno, monomeric human and huFc fused dimeric human Tim3-ECD) concentrations was injected over each sample for 240 s followed by a dissociation time of 30/1800 s. Each analysis cycle (sample capture, spot 1 and 5-Tim3 ECD injection) was then regenerated with a 30 seconds long injection of Glycine-HCl pH 1.7. The flow rate was set to 30 μl/min for the whole run.
(§4) Finally the double referenced data was fitted to a 1:1 Langmuir interaction model with the BIAcore B4000 Evaluation Software.

[4] = target: T2, full-length human Tim3 on cells (CHO-K1 …); experiment: cellular ELISA on CHO-TIM3 (values in relation to the samples max value)
Description: as §1

Tim3-ECD-His-Biotin [5] = target: T1, Tim3-ECD-His-Biotin; experiment: ELISA on human Tim3
[6] = target: T4, huFc fused dimeric human Tim3-ECD (human, UniProt Q8TDQ0 22-202); experiment: SPR, Ab captured, dimer Tim3 (avidity)
T4 construct: also called huTim3Fc; Fc-tagged human Tim3-ECD dimer
Excerpt: as §2, §3, §4

monomeric human Tim3-ECD [7] = target: T3, monomeric human Tim3-ECD; experiment: SPR, Ab captured, monomer Tim3
Tim3-ECD-His-Biotin [8] = target: T1, Tim3-ECD-His-Biotin; experiment: ELISA on streptavidin-captured Tim3-ECD-His-Biotin
Description: After washing (3×90 μl/well with PBST-buffer) 25 μl aTim3 samples or diluted (1:2 steps) reference antibody aTim3 F38-2E2 (Biolegend) was added and incubated 1 h at RT. After washing (3×90 μl/well with PBST-buffer) 25 μl/well sheep-anti-mouse-POD (GE NA9310V) was added in 1:9000 dilution and incubated at RT for 1 h while shaking at 400 rpm rotation. After washing (4×90 μl/well with PBST-buffer) 25 μl/well TMB substrate (Calbiochem, #CL07) was added and incubated until OD 1.5-2.5. Then the reaction was stopped by addition of 25 μl/well 1N HCL-solution.

[9] = target: T4, huFc fused dimeric human Tim3-ECD; experiment: SPR BIAcore B4000, Ab captured on anti-mouse IgG, 25 C, dimeric antigen (avidity)
Excerpt: as §2, §3, §4

[10] = target: T2, full-length human Tim3 on cells (CHO-K1 …); experiment: cellular ELISA on CHO-TIM3
Description: as §1

B1: Tim3_0016 variant (0018) (antibody, V domains shown)
VH: QVTLKESGPGILQPSQTLSLTCSFSGFSLSTSGMSVGWIRQPSGKGLEWLAHIWLNDDVFFNPALKRRLTISKDTSNNQVFLQIASVVTADTATYYCVRANGYLYALDYWGQGISVTVSS
VL: QIVLTQSPAIMSASPGQKVTITCSASSSVNYTQWYQQKLGSSPKLWIYDAFKLAPGVPARFSGSGTGTSYSLTISSMEAEDAASYFCHQWSSYPWTFGGGTKLEIK
notes: Mouse monoclonal antibody; also called Tim3_0018; Tim3 0018
EC50 (Tim3-ECD-His-Biotin [1]): 0.0151 µg/mL | EC50 [2]: 0.52 nM and 0.087 µg/mL | Kd (monomeric human Tim3-ECD [3]): 3.4 nM | EC50 [4]: 0.0264 µg/mL | Inflexion point (Tim3-ECD-His-Biotin [5]): 15.3 ng/mL | Kd [6]: 1.1 nM | Kd (monomeric human Tim3-ECD [7]): 3.4 nM | EC50 (Tim3-ECD-His-Biotin [8]): 0.56 nM and 0.094 µg/mL | Kd [9]: 1.11 nM | Inflexion point [10]: 29.4 ng/mL
